The text below walks through data of the supplement of paper PMC9428881.

A short description of this data set: background-corrected fluorescence of 3'-dye-labeled ssDNA relative to brightest sequence (3'-GCGCG) (fraction); higher = brighter dye fluorescence (less quenching). The method, then:
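Single-stranded DNA is synthesized in situ on glass microarrays by 5'->3' photolithographic synthesis, with a Cy3 or Cy5 phosphoramidite coupled at the 3' end next to all 1024 permuted pentamers P1-P5. The construct is 5'-T5-(ACGT minus P5..P1 trinucleotides)-T15-P5P4P3P2P1-dye-3'; the dye is a 3' terminal modification, not part of the sequence. Arrays were scanned at 532 nm (Cy3) or 635 nm (Cy5), background from unlabeled oligos was subtracted, and values are averaged over 10 replicate features per array and at least 3 independent syntheses.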

± gives the standard error.

Regarding “TTTTTGCAGCATGCGCATGCTTTTTTTTTTTTTTTTTATA [ATATT]”, the background-corrected fluorescence by setting is: (dye: Cy3 (3' terminal)) 0.538 ± 0.038; (dye: Cy5 (3' terminal)) 0.4 ± 0.028.

As for “TTTTTGCAGCATGCTCAGCATTTTTTTTTTTTTTTTTAGT [TGATT]”, the background-corrected fluorescence worked out at 0.619 ± 0.012 (dye: Cy3 (3' terminal)) and 0.5 ± 0.03 (dye: Cy5 (3' terminal)).

Regarding “TTTTTGCAGCATGCTCATCATTTTTTTTTTTTTTTTTAGG [GGATT]”, the background-corrected fluorescence was 0.612 ± 0.027 (dye: Cy3 (3' terminal)) and 0.489 ± 0.054 (dye: Cy5 (3' terminal)).

“TTTTTGCAGCATGCTCATGATTTTTTTTTTTTTTTTTAGC [CGATT]” returned a background-corrected fluorescence (dye: Cy3 (3' terminal)) of 0.506 ± 0.028 and a background-corrected fluorescence (dye: Cy5 (3' terminal)) of 0.385 ± 0.023.

Take “TTTTTGCAGCATGCTCATGCTTTTTTTTTTTTTTTTTAGA [AGATT]”: the background-corrected fluorescence (dye: Cy3 (3' terminal)) came out at 0.6442 ± 0.0061 and the background-corrected fluorescence (dye: Cy5 (3' terminal)) turned out to be 0.531 ± 0.036.

In turn, “TTTTTGCAGCATGCTGAGCATTTTTTTTTTTTTTTTTACT [TCATT]” gave a background-corrected fluorescence (dye: Cy3 (3' terminal)) of 0.49 ± 0.013 and a background-corrected fluorescence (dye: Cy5 (3' terminal)) of 0.361 ± 0.047.

With “TTTTTGCAGCATGCTGATCATTTTTTTTTTTTTTTTTACG [GCATT]”, the background-corrected fluorescence stood at 0.5 ± 0.023 (dye: Cy3 (3' terminal)) and 0.398 ± 0.08 (dye: Cy5 (3' terminal)).

Turning to “TTTTTGCAGCATGCTGATGATTTTTTTTTTTTTTTTTACC [CCATT]”, the background-corrected fluorescence reads like this: (dye: Cy3 (3' terminal)) 0.388 ± 0.019; (dye: Cy5 (3' terminal)) 0.286 ± 0.017.

Take “TTTTTGCAGCATGCTGATGCTTTTTTTTTTTTTTTTTACA [ACATT]”: the background-corrected fluorescence is 0.502 ± 0.01 (dye: Cy3 (3' terminal)) and 0.397 ± 0.025 (dye: Cy5 (3' terminal)).

With “TTTTTGCAGCATGCTGCGCATTTTTTTTTTTTTTTTTAAT [TAATT]”, the background-corrected fluorescence reads like this: (dye: Cy3 (3' terminal)) 0.576 ± 0.018; (dye: Cy5 (3' terminal)) 0.412 ± 0.019.

Sequence “TTTTTGCAGCATGCTGCTCATTTTTTTTTTTTTTTTTAAG [GAATT]” gave a background-corrected fluorescence (dye: Cy3 (3' terminal)) of 0.536 ± 0.025 and a background-corrected fluorescence (dye: Cy5 (3' terminal)) of 0.411 ± 0.026.

On to “TTTTTGCAGCATGCTGCTGATTTTTTTTTTTTTTTTTAAC [CAATT]”, for which the background-corrected fluorescence reads like this: (dye: Cy3 (3' terminal)) 0.408 ± 0.011; (dye: Cy5 (3' terminal)) 0.314 ± 0.026.

For the sequence “TTTTTGCAGCATGCTGCTGCTTTTTTTTTTTTTTTTTAAA [AAATT]”, the background-corrected fluorescence was found to be 0.63 ± 0.021 (dye: Cy3 (3' terminal)) and 0.487 ± 0.042 (dye: Cy5 (3' terminal)).

In turn, “TTTTTGCATCAGCAGCAGCATTTTTTTTTTTTTTTTGTTT” gave a background-corrected fluorescence (dye: Cy3 (3' terminal)) of 0.511 ± 0.028 and a background-corrected fluorescence (dye: Cy5 (3' terminal)) of 0.396 ± 0.06.

On to “TTTTTGCATCAGCAGCATCATTTTTTTTTTTTTTTTGTTG [GTTGT]”, for which the background-corrected fluorescence runs as follows: (dye: Cy3 (3' terminal)) 0.515 ± 0.027; (dye: Cy5 (3' terminal)) 0.373 ± 0.017.

Consider “TTTTTGCATCAGCAGCATGATTTTTTTTTTTTTTTTGTTC [CTTGT]”, for which the background-corrected fluorescence is 0.433 ± 0.0082 (dye: Cy3 (3' terminal)) and 0.31 ± 0.025 (dye: Cy5 (3' terminal)).

On to “TTTTTGCATCAGCAGCATGCTTTTTTTTTTTTTTTTGTTA [ATTGT]”, for which the background-corrected fluorescence is, setting by setting: (dye: Cy3 (3' terminal)) 0.51 ± 0.02; (dye: Cy5 (3' terminal)) 0.415 ± 0.023.

“TTTTTGCATCAGCATCAGCATTTTTTTTTTTTTTTTGTGT” had a background-corrected fluorescence (dye: Cy3 (3' terminal)) of 0.603 ± 0.025 and a background-corrected fluorescence (dye: Cy5 (3' terminal)) of 0.497 ± 0.026.

For the sequence “TTTTTGCATCAGCATCATCATTTTTTTTTTTTTTTTGTGG [GGTGT]”, the background-corrected fluorescence by setting is: (dye: Cy3 (3' terminal)) 0.585 ± 0.06; (dye: Cy5 (3' terminal)) 0.511 ± 0.029.

“TTTTTGCATCAGCATCATGATTTTTTTTTTTTTTTTGTGC [CGTGT]”: the background-corrected fluorescence by setting is: (dye: Cy3 (3' terminal)) 0.494 ± 0.0099; (dye: Cy5 (3' terminal)) 0.402 ± 0.027.

Take “TTTTTGCATCAGCATCATGCTTTTTTTTTTTTTTTTGTGA [AGTGT]”: the background-corrected fluorescence (dye: Cy3 (3' terminal)) came to 0.68 ± 0.026 and the background-corrected fluorescence (dye: Cy5 (3' terminal)) was determined as 0.564 ± 0.039.

Regarding “TTTTTGCATCAGCATGAGCATTTTTTTTTTTTTTTTGTCT [TCTGT]”, the background-corrected fluorescence reads like this: (dye: Cy3 (3' terminal)) 0.48 ± 0.021; (dye: Cy5 (3' terminal)) 0.367 ± 0.028.

The sequence “TTTTTGCATCAGCATGATCATTTTTTTTTTTTTTTTGTCG [GCTGT]” showed a background-corrected fluorescence (dye: Cy3 (3' terminal)) of 0.552 ± 0.029 and a background-corrected fluorescence (dye: Cy5 (3' terminal)) of 0.392 ± 0.023.

Regarding “TTTTTGCATCAGCATGATGATTTTTTTTTTTTTTTTGTCC [CCTGT]”, the background-corrected fluorescence is, setting by setting: (dye: Cy3 (3' terminal)) 0.401 ± 0.014; (dye: Cy5 (3' terminal)) 0.289 ± 0.018.

For the sequence “TTTTTGCATCAGCATGATGCTTTTTTTTTTTTTTTTGTCA [ACTGT]”, the background-corrected fluorescence by setting is: (dye: Cy3 (3' terminal)) 0.487 ± 0.069; (dye: Cy5 (3' terminal)) 0.439 ± 0.08.

Take “TTTTTGCATCAGCATGCGCATTTTTTTTTTTTTTTTGTAT [TATGT]”: the background-corrected fluorescence reads like this: (dye: Cy3 (3' terminal)) 0.53 ± 0.024; (dye: Cy5 (3' terminal)) 0.418 ± 0.031.

As to “TTTTTGCATCAGCATGCTCATTTTTTTTTTTTTTTTGTAG [GATGT]”, the background-corrected fluorescence runs as follows: (dye: Cy3 (3' terminal)) 0.535 ± 0.015; (dye: Cy5 (3' terminal)) 0.443 ± 0.064.

On to “TTTTTGCATCAGCATGCTGATTTTTTTTTTTTTTTTGTAC [CATGT]”, for which the background-corrected fluorescence (dye: Cy3 (3' terminal)) turned out to be 0.471 ± 0.041 and the background-corrected fluorescence (dye: Cy5 (3' terminal)) turned out to be 0.344 ± 0.022.
